From paper PMC9243104 (Nature Communications, 2022) come the findings set out here.

One series has as its target WASp (WT*WASp) (Homo sapiens, UniProt P42768 1-502). Kind of series: EMSA; WASp alone; EMSA: 1x Promega E358A gel shift binding buffer (composition not given), 25 ul, 10^5 CPM 32P probe, 10 min 4 C then 20 min room temperature, 6% native PAGE. The settings on record: protein: recombinant; tags: Flag; label: 32P (T4 PNK); single strand. For orientation: In EMSA bound probe runs differently from free probe, usually more slowly.

The target of the next series is RPA1-FAB (DBD-F/A/B) (Homo sapiens, UniProt P27694 1-422). The series is described as follows: EMSA; + WASp; binding increased; EMSA: 1x Promega E358A gel shift binding buffer (composition not given), 25 ul, 10^5 CPM 32P probe, 10 min 4 C then 20 min room temperature, 6% native PAGE. The settings on record: protein: recombinant; label: 32P (T4 PNK); single strand.
The target in another series is RPA1-AB (DBD-A/B) (Homo sapiens, UniProt P27694 181-422). The series is described as above. The following applies: protein: recombinant; label: 32P (T4 PNK); single strand.
In series [1] the target is RPA heterotrimer (RPA1-3) (Homo sapiens, UniProt P27694;P15927;P35244 1-616;1-270;1-121). The description is as above. The following applies: protein: recombinant; copies: 1;1;1; label: 32P (T4 PNK); single strand.
The next series deals with RPA1 (RPA70) (Homo sapiens, UniProt P27694 1-616). Kind of series: EMSA; + WASp; binding increased, maximum at equimolar 25 nM WASp; EMSA: 1x Promega E358A gel shift binding buffer (composition not given), 25 ul, 10^5 CPM 32P probe, 10 min 4 C then 20 min room temperature, 6% native PAGE. The settings on record: protein: commercial; label: 32P (T4 PNK); single strand.
Series [2] concerns the molecule itself. The series is described as follows: ELISA; 1 µg of 1st protein coated on a 96-well plate (1 h, 25 °C), blocked with 5% milk in PBS; 2nd protein added at increasing concentrations in blocking buffer (1 h, 25 °C); detected with anti-WASp antibody, OD450; RPA coated alone or after pre-incubation with 1 nM ssDNA. For orientation: An ELISA detects its analyte on a solid surface through an enzyme-linked reagent.

Sequence of RPA1 (RPA70) (P27694 whole entry): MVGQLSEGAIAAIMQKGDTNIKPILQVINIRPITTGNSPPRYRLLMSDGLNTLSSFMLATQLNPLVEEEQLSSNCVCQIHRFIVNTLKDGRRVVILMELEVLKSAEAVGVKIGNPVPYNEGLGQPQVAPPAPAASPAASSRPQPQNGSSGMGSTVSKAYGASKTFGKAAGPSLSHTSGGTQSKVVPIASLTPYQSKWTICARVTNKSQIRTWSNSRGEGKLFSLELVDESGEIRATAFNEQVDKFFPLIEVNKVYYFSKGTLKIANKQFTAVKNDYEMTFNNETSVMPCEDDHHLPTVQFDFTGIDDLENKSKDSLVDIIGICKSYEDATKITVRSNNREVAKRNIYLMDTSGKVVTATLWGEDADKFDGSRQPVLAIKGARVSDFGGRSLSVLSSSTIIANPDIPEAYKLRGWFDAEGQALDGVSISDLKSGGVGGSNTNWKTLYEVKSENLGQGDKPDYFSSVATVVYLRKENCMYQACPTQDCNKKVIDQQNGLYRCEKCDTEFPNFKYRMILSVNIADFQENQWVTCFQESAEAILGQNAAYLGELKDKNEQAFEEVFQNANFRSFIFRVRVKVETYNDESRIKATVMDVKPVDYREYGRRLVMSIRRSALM
Sequence of RPA heterotrimer (RPA1-3) (P27694 whole entry, chain 1 of 3): as the sequence (P27694 whole entry) above
Sequence of RPA heterotrimer (RPA1-3) (P15927 whole entry, chain 2 of 3): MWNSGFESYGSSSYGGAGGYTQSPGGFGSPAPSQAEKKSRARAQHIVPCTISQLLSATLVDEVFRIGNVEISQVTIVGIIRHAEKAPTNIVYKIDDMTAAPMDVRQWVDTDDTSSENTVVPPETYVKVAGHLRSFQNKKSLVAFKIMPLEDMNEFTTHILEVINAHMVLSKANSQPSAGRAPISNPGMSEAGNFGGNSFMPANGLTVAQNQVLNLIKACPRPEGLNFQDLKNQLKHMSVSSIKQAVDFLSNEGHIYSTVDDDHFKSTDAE
Sequence of RPA heterotrimer (RPA1-3) (P35244 whole entry, chain 3 of 3): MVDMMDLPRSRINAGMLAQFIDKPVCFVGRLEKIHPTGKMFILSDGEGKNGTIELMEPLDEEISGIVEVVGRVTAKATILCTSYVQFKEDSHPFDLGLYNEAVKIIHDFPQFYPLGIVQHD
Sequence of RPA1-AB (DBD-A/B) (P27694 181-422): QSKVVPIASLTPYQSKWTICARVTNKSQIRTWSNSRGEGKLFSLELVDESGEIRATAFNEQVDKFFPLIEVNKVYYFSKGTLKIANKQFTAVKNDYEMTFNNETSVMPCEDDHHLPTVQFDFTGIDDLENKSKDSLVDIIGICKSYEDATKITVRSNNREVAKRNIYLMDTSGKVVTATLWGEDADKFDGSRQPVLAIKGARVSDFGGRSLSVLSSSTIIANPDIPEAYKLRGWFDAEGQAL
Sequence of RPA1-FAB (DBD-F/A/B) (P27694 1-422): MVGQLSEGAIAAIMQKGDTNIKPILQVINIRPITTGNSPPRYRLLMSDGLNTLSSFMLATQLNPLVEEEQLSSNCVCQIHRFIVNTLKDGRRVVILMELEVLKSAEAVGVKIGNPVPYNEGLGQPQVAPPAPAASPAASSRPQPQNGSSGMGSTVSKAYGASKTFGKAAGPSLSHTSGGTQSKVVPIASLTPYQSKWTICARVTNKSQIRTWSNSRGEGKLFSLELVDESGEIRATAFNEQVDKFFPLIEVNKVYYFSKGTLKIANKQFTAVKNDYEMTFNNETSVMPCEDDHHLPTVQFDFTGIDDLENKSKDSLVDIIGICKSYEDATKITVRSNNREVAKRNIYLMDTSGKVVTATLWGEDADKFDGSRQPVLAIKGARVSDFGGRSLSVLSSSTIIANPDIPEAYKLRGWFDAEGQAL

B1: ssRNA 61-mer (ssRNA)
RNA: GACGCUGCCGAAUUCUACCAGUGCCUUGCUAGGACAUCUUUGCCCACCUGCAGGUUCACCC
On to B1, for which, in the series with WASp (WT*WASp), the binding result is “no binding”.

B2: XO1 ssDNA 61-mer (ssDNA)
DNA: GACGCTGCCGAATTCTACCAGTGCCTTGCTAGGACATCTTTGCCCACCTGCAGGTTCACCC
As to B2, the binding result was “no binding” with WASp (WT*WASp); “binds” in the series with RPA1-FAB (DBD-F/A/B); “binds” with RPA1-AB (DBD-A/B); “binds” in series [1]; “binds” with RPA1 (RPA70).

B3: Recombinant human WT*WASp (Wiskott-Aldrich syndrome protein) (natural protein, UniProt P42768 1-502, looked up)
chain: MSGGPMGGRPGGRGAPAVQQNIPSTLLQDHENQRLFEMLGRKCLTLATAVVQLYLALPPGAEHWTKEHCGAVCFVKDNPQKSYFIRLYGLQAGRLLWEQELYSQLVYSTPTPFFHTFAGDDCQAGLNFADEDEAQAFRALVQEKIQKRNQRQSGDRRQLPPPPTPANEERRGGLPPLPLHPGGDQGGPPVGPLSLGLATVDIQNPDITSSRYRGLPAPGPSPADKKRSGKKKISKADIGAPSGFKHVSHVGWDPQNGFDVNNLDPDLRSLFSRAGISEAQLTDAETSKLIYDFIEDQGGLEAVRQEMRRQEPLPPPPPPSRGGNQLPRPPIVGGNKGRSGPLPPVPLGIAPPPPTPRGPPPPGRGGPPPPPPPATGRSGPLPPPPPGAGGPPMPPPPPPPPPPPSSGNGPAPPPLPPALVPAGGLAPGGGRGALLDQIRQGIQLNKTPGAPESSALQPPPQSSEGLVGALMHVMQKRSRAIHSSDEGEDQAGDEDEDDEWDD
notes: human WASp, codon-optimized WAS gene cloned into the NdeI-HindIII site of pET30a; also called wild-type WASp; native purified human WASp; source: E. coli DE3 (pET30a-WT*WASp), purified using Flag-tag; commercially produced by GenScript
On to B3, for which, in series [2], the binding result is recorded as “binds”.

B4: Recombinant human ΔRBM1*WASp (WASp mutant lacking the RPA1-binding motif, aa 493-502) (natural protein, UniProt P42768 1-502, looked up)
chain: MSGGPMGGRPGGRGAPAVQQNIPSTLLQDHENQRLFEMLGRKCLTLATAVVQLYLALPPGAEHWTKEHCGAVCFVKDNPQKSYFIRLYGLQAGRLLWEQELYSQLVYSTPTPFFHTFAGDDCQAGLNFADEDEAQAFRALVQEKIQKRNQRQSGDRRQLPPPPTPANEERRGGLPPLPLHPGGDQGGPPVGPLSLGLATVDIQNPDITSSRYRGLPAPGPSPADKKRSGKKKISKADIGAPSGFKHVSHVGWDPQNGFDVNNLDPDLRSLFSRAGISEAQLTDAETSKLIYDFIEDQGGLEAVRQEMRRQEPLPPPPPPSRGGNQLPRPPIVGGNKGRSGPLPPVPLGIAPPPPTPRGPPPPGRGGPPPPPPPATGRSGPLPPPPPGAGGPPMPPPPPPPPPPPSSGNGPAPPPLPPALVPAGGLAPGGGRGALLDQIRQGIQLNKTPGAPESSALQPPPQSSEGLVGALMHVMQKRSRAIHSSDEGEDQAG
notes: also called RBM1-deleted WASp mutant; source: E. coli DE3 (pET30a-∆RBM1*WASp), purified using Flag-tag; commercially produced by GenScript
On to B4, for which the binding result in series [2] is recorded as “binds”.
